Measurements reported in article PMC3398199 (Molecular Cell, 2012).

Target: His-tagged human recombinant full-length NEMO (human, UniProt Q9Y6K9 1-419)
Test: SEC

Sequence of His-tagged human recombinant full-length NEMO (Q9Y6K9 whole entry): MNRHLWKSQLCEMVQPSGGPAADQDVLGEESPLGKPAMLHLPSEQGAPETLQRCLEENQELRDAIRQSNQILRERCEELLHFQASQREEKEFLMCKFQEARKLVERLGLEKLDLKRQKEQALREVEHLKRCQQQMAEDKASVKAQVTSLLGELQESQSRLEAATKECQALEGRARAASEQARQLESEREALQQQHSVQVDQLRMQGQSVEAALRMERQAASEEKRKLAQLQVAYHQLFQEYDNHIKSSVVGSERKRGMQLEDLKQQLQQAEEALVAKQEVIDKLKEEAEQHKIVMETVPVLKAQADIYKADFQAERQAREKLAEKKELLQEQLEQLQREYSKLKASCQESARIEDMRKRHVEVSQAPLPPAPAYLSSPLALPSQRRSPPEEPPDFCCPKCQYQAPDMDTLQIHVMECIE

B1: recombinant FL-human IκBα (natural protein, UniProt P25963 1-317, looked up)
chain: MFQAAERPQEWAMEGPRDGLKKERLLDDRHDSGLDSMKDEEYEQMVKELQEIRLEPQEVPRGSEPWKQQLTEDGDSFLHLAIIHEEKALTMEVIRQVKGDLAFLNFQNNLQQTPLHLAVITNQPEIAEALLGAGCDPELRDFRGNTPLHLACEQGCLASVGVLTQSCTTPHLHSILKATNYNGHTCLHLASIHGYLGIVELLVSLGADVNAQEPCNGRTALHLAVDLQNPDLVSLLLKCGADVNRVTYQGYSPYQLTWGRPSTRIQQQLGQLTLENLQMLPESEDEESYDTESEFTEFTEDELPYDDCVFGGQRLTL
B1: binds.
